In patent publication US20250084453:

Columns and labels:
[1] = target: translation termination factor GSPT1, endogenous in HEK293T cells (UniProt P15170)
[2] = target: translation termination factor GSPT2, endogenous in HEK293T cells (UniProt Q8IYD1)
[3] = target: VCL (vinculin), endogenous in HEK293T cells (UniProt P18206)
[4] = target: BRD4, endogenous in HEK293T cells (UniProt O60885)
[5] = target: BRD2, endogenous in HEK293T cells (UniProt P25440)
[6] = target: HIF1A, endogenous in HEK293T or A375 cells (UniProt Q16665)
[7] = target: BRD3, endogenous in HEK293T cells (UniProt Q15059)
V5-tagged IKZF1 protein = V5-tagged IKZF1 protein (UniProt Q13422)
[8] = target: GLUL (glutamine synthetase), endogenous in HEK293T cells (UniProt P15104)
[9] = target: T1, RBM39 (RNA-Binding Motif Protein 39)/CAPERα, endogenous in HEK293T cells (UniProt Q14498)
T1 sequence: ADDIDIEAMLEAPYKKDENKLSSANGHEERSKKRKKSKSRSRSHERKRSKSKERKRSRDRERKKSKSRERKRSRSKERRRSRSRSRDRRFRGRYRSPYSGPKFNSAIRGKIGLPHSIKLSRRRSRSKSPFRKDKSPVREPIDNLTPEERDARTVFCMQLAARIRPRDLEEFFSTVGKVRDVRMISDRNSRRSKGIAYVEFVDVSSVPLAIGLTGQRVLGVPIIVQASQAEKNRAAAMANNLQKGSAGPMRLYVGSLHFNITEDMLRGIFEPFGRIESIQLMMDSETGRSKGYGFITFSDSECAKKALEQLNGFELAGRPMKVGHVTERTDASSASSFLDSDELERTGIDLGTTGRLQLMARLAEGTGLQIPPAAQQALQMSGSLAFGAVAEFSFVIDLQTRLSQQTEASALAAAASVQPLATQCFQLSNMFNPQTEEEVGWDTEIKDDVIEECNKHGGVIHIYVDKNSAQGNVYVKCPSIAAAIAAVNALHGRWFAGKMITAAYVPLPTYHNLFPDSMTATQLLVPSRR

Sequence of V5-tagged IKZF1 protein (Q13422 whole entry, looked up): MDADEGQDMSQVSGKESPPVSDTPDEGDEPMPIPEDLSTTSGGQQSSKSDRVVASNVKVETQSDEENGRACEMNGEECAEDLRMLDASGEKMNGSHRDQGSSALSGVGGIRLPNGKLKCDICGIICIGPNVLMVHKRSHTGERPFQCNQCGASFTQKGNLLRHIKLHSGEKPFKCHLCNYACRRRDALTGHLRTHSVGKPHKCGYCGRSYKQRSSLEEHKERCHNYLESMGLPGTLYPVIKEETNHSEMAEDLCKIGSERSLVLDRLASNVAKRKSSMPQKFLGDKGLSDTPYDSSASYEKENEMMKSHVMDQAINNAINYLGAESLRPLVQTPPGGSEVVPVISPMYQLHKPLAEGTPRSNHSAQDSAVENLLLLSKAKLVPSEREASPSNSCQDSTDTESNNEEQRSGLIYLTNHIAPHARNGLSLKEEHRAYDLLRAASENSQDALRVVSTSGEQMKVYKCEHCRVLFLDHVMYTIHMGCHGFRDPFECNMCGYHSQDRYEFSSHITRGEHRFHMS
Sequence of VCL (vinculin), endogenous in HEK293T cells (P18206 other isoform, or with tags, fused parts or gaps): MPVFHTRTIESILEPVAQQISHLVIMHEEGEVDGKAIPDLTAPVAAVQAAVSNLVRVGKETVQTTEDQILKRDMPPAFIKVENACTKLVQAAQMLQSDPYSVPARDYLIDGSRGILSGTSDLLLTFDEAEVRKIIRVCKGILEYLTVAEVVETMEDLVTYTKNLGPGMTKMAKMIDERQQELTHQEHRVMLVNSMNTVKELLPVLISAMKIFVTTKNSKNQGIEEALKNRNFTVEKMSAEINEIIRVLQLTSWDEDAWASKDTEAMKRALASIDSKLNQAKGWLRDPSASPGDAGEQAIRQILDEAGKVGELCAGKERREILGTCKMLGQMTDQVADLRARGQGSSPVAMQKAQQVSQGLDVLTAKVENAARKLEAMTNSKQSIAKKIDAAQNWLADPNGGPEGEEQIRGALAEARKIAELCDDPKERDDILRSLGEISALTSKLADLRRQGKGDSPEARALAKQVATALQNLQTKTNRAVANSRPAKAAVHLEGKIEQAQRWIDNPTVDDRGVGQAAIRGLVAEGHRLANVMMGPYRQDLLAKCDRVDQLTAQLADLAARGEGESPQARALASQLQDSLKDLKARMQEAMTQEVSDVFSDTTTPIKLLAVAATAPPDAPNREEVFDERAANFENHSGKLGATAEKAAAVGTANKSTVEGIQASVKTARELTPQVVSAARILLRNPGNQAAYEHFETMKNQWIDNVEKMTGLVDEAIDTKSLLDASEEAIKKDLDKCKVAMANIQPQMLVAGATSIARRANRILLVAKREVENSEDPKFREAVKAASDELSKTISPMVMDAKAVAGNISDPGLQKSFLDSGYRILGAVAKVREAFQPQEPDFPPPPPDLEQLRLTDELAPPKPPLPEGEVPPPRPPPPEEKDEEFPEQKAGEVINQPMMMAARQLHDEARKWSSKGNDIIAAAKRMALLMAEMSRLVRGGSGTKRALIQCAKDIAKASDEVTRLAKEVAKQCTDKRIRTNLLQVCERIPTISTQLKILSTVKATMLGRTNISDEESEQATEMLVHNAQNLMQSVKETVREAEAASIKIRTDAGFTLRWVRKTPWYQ
Sequence of translation termination factor GSPT1, endogenous in HEK293T cells (P15170 whole entry): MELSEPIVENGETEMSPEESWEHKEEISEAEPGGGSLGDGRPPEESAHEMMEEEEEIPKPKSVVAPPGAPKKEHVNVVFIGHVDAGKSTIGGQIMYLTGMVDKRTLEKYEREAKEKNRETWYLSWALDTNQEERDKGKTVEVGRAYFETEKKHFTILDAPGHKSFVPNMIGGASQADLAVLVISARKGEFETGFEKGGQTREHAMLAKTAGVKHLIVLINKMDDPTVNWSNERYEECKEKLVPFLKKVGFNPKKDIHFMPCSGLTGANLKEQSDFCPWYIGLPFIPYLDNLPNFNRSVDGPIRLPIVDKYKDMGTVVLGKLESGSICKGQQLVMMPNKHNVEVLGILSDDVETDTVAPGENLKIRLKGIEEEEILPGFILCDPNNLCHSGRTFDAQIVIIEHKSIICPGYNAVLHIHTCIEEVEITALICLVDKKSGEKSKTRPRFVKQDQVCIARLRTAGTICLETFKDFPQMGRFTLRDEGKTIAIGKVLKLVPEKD
Sequence of translation termination factor GSPT2, endogenous in HEK293T cells (Q8IYD1 whole entry): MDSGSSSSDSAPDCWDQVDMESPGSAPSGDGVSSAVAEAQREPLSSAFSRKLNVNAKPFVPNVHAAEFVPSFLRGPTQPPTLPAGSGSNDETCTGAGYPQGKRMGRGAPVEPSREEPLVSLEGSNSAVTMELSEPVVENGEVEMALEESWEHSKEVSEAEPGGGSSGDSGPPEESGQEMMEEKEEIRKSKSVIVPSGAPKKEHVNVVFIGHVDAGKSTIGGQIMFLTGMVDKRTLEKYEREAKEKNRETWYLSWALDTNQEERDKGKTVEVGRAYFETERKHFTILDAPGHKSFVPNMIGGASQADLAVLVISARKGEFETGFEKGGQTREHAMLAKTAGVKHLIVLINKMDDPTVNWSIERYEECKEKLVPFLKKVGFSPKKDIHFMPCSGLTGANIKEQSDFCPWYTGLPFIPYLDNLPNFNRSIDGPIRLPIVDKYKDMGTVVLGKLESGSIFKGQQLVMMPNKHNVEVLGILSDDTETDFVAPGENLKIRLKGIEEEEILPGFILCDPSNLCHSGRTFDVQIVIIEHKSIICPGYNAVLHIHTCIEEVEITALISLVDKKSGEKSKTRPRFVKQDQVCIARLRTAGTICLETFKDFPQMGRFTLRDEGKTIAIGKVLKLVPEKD
Sequence of BRD2, endogenous in HEK293T cells (P25440 whole entry, looked up): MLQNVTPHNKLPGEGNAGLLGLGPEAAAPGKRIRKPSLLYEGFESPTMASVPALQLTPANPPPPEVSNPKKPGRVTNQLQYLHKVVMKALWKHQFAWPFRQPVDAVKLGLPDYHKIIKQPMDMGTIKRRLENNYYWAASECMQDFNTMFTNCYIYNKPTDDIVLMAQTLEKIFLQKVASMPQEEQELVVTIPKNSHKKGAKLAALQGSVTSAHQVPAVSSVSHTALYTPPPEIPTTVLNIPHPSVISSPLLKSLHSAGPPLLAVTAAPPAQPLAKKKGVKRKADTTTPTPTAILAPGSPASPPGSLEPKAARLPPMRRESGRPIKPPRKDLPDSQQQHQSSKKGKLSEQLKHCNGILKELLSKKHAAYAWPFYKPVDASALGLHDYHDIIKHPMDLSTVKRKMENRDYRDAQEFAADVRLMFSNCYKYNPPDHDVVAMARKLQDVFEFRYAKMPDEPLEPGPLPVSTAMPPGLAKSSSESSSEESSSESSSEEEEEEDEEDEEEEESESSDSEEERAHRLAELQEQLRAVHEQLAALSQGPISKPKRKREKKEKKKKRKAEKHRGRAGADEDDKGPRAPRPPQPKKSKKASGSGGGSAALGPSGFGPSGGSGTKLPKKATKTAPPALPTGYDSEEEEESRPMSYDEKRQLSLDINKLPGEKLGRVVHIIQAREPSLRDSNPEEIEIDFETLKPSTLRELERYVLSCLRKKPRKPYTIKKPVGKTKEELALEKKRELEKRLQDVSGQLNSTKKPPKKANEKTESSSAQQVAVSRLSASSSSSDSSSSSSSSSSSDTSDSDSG
Sequence of BRD3, endogenous in HEK293T cells (Q15059 2-726): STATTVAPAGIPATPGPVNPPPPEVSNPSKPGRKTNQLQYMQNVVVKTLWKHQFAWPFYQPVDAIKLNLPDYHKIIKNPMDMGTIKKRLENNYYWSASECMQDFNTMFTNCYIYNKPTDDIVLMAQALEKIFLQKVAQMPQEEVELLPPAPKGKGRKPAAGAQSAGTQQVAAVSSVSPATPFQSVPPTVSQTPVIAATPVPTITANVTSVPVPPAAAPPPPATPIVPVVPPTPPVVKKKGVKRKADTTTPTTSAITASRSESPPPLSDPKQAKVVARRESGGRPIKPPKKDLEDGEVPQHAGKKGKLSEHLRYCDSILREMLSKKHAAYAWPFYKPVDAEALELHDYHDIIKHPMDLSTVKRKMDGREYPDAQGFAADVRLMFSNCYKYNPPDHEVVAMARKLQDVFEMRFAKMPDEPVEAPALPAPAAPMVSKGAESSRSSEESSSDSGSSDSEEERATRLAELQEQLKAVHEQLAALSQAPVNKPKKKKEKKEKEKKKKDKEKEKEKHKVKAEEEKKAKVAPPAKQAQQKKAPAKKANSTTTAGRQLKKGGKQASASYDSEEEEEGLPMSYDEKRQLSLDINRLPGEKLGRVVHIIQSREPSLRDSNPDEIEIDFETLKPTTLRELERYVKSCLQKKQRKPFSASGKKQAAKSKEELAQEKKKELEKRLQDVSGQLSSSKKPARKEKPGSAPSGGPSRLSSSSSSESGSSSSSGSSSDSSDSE
Sequence of GLUL (glutamine synthetase), endogenous in HEK293T cells (P15104 2-373): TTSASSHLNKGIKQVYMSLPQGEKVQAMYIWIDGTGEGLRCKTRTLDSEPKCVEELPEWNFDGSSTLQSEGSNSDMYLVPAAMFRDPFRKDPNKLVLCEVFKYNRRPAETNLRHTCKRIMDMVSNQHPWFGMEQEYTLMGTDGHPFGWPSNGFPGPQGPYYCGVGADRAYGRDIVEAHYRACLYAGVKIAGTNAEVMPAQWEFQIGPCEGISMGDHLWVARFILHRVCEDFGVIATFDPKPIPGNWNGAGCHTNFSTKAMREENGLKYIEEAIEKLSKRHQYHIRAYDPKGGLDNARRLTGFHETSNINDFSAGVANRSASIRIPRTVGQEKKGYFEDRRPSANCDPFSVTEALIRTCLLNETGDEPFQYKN

CRBN-BirA mutant D249Y
biotinylation in streptavidin pulldown (MS, A3-HA-Ub, CC-885 1 µM), D249Y mutant against WT CRBN-BirA [1]: a decrease in biotinylation by the loss-of-function CRBN-BirA mutants | biotinylation in streptavidin pulldown (MS, A3-HA-Ub, CC-885 1 µM), D249Y mutant against WT CRBN-BirA [2]: a decrease in biotinylation by the loss-of-function CRBN-BirA mutants | biotinylation in streptavidin pulldown (MS, A3-HA-Ub, CC-885 1 µM), D249Y mutant against WT CRBN-BirA [3]: a decrease in biotinylation by the loss-of-function CRBN-BirA mutants

VHL E3 ligase fused to E. coli wild-type BirA biotin ligase (VHL-BirA)
differential enrichment in streptavidin pulldown (MS, triplicates, A3-HA-Ub), PROTAC ARV-771 (1 µM) against DMSO [4]: VHL-BirA; ubiquitinated substrates BRD2, BRD3, BRD4 observed in the upper right portion of the top right volcano plot | differential enrichment in streptavidin pulldown (MS, triplicates, A3-HA-Ub), PROTAC ARV-771 (1 µM) against DMSO [5]: VHL-BirA; ubiquitinated substrates BRD2, BRD3, BRD4 observed in the upper right portion of the top right volcano plot | proteins differentially biotinylated by VHL-BirA against CRBN-BirA (MS, triplicates, A3-tagged ubiquitin, HEK293T) [6]: One of the best known VHL substrates, HIF1A was among the hits of differentially biotinylated proteins by VHL-BirA | differential enrichment in streptavidin pulldown (MS, triplicates, A3-HA-Ub), PROTAC ARV-771 (1 µM) against DMSO [7]: VHL-BirA; ubiquitinated substrates BRD2, BRD3, BRD4 observed in the upper right portion of the top right volcano plot

CRBN-BirA mutant W386A
biotinylation in streptavidin pulldown (MS, A3-HA-Ub, CC-885 1 µM), W386A mutant against WT CRBN-BirA [1]: a decrease in biotinylation by the loss-of-function CRBN-BirA mutants | biotinylation in streptavidin pulldown (MS, A3-HA-Ub, CC-885 1 µM), W386A mutant against WT CRBN-BirA [2]: a decrease in biotinylation by the loss-of-function CRBN-BirA mutants | biotinylation in streptavidin pulldown (MS, A3-HA-Ub, CC-885 1 µM), W386A mutant against WT CRBN-BirA [3]: a decrease in biotinylation by the loss-of-function CRBN-BirA mutants

CRBN E3 ligase fused at its carboxy terminus to E. coli wild-type BirA biotin ligase (CRBN-BirA)
differential enrichment in streptavidin pulldown (MS, triplicates, A3-HA-Ub), PROTAC dBET6 (1 µM) against DMSO [4]: CRBN-BirA; ubiquitinated substrates BRD2, BRD3, BRD4 observed in the upper right portion of the top left volcano plot | biotinylated, ubiquitinated V5-IKZF1 in streptavidin bead eluates (Western blot), Avi-Ub or A3-Ub, with pomalidomide (1 µM) (V5-tagged IKZF1 protein): both substrate peptide-tagged ubiquitin variants showed pomalidomide-induced ubiquitination of IKZF1 by E3 ligase CRBN | biotinylated, ubiquitinated V5-IKZF1 in streptavidin pulldown (Western blot, Avi-HA-Ub), with pomalidomide (1 µM) (V5-tagged IKZF1 protein): in conditions where pomalidomide was present, an increased amount of mono- and poly-ubiquitinated V5-IKZF1 was captured by the streptavidin beads | sensitivity in detecting pomalidomide-induced ubiquitination of V5-IKZF1 (Western blot quantification), A3-tagged ubiquitin (V5-tagged IKZF1 protein): 17.76 to 5.58 when comparing A3 to Avi | sensitivity in detecting pomalidomide-induced ubiquitination of V5-IKZF1 (Western blot quantification), Avi-tagged ubiquitin (V5-tagged IKZF1 protein): 17.76 to 5.58 when comparing A3 to Avi | ubiquitinated V5-IKZF1 captured by streptavidin beads (Western blot quantification, Avi-HA-Ub), pomalidomide against DMSO (V5-tagged IKZF1 protein): approximately 3.9-fold more ubiquitinated V5-IKZF1 substrate was captured by the streptavidin beads | # of PSMs in streptavidin pulldown (MS), A3-Ub, CC-885 [1]: 30 PSMs | # of PSMs in streptavidin pulldown (MS), A3-Ub, DMSO [1]: 0 PSMs | # of PSMs in streptavidin pulldown (MS), Avi-Ub, CC-885 [1]: 25 PSMs | # of PSMs in streptavidin pulldown (MS), Avi-Ub, DMSO [1]: 0 PSMs | biotinylated, ubiquitinated endogenous GSPT1 in streptavidin pulldown (Western blot, Avi-HA-Ub), with CC-885 (1 µM) [1]: mono- and poly-ubiquitinated GSPT1 captured by the streptavidin beads were only observed in conditions where CC-885 was present | biotinylation in streptavidin pulldown (MS, A3-HA-Ub, CC-885 1 µM), WT CRBN-BirA against loss-of-function mutants [1]: substrates GSPT1, GSPT2, VCL and CSNK1A1 were identified | differential enrichment in streptavidin pulldown (MS, triplicates, A3-Ub), CC-885 against DMSO [1]: GSPT1 and GSPT2 are observed to be the most upregulated proteins, both by amount and by statistical significance | sensitivity in detecting CC-885-induced ubiquitination of GSPT1 by CRBN (Western blot quantification), A3-tag [1]: when comparing A3-tag to Avi-tag (36.39 to 15.46, respectively) | sensitivity in detecting CC-885-induced ubiquitination of GSPT1 by CRBN (Western blot quantification), Avi-tag [1]: when comparing A3-tag to Avi-tag (36.39 to 15.46, respectively) | ubiquitinated GSPT1 captured by streptavidin beads (Western blot quantification, Avi-HA-Ub), CC-885 against DMSO [1]: 6-12 fold more ubiquitinated GSPT1 was captured by the streptavidin beads | # of PSMs in streptavidin pulldown (MS), A3-Ub, CC-885 [2]: 20 PSMs | # of PSMs in streptavidin pulldown (MS), A3-Ub, DMSO [2]: 0 PSMs | # of PSMs in streptavidin pulldown (MS), Avi-Ub, CC-885 [2]: 13 PSMs | # of PSMs in streptavidin pulldown (MS), Avi-Ub, DMSO [2]: 0 PSMs | biotinylation in streptavidin pulldown (MS, A3-HA-Ub, CC-885 1 µM), WT CRBN-BirA against loss-of-function mutants [2]: substrates GSPT1, GSPT2, VCL and CSNK1A1 were identified | differential enrichment in streptavidin pulldown (MS, triplicates, A3-Ub), CC-885 against DMSO [2]: GSPT1 and GSPT2 are observed to be the most upregulated proteins, both by amount and by statistical significance | differential enrichment in streptavidin pulldown (MS, triplicates, A3-HA-Ub), PROTAC dBET6 (1 µM) against DMSO [5]: CRBN-BirA; ubiquitinated substrates BRD2, BRD3, BRD4 observed in the upper right portion of the top left volcano plot | proteins differentially biotinylated, VHL-BirA against CRBN-BirA (MS, triplicates, A3-tagged ubiquitin, HEK293T) [8]: Other identified proteins included GLUL, which is a reported a CRBN substrate | biotinylation in streptavidin pulldown (MS, A3-HA-Ub, CC-885 1 µM), WT CRBN-BirA against loss-of-function mutants [3]: substrates GSPT1, GSPT2, VCL and CSNK1A1 were identified | differential enrichment in streptavidin pulldown (MS, triplicates, A3-HA-Ub), PROTAC dBET6 (1 µM) against DMSO [7]: CRBN-BirA; ubiquitinated substrates BRD2, BRD3, BRD4 observed in the upper right portion of the top left volcano plot

DCAF15 fused to BirA biotin ligase (DCAF15-BirA)
differential enrichment in streptavidin pulldown (MS, triplicates, A3-HA-Ub), E7820 (10 µM) against DMSO [9]: the induced ubiquitinated substrate RBM39/CAPERα was produced as a result of the use of the E7820 molecular glue in conjunction with DCAF15-BirA and associated CRL4 E3 ligase
